What was measured:
latent TGFβ3 = biological target: T1, latent TGFβ3 (Homo sapiens (Human), UniProt P10600 21-412, limits assumed); test: Octet (bio-layer interferometry)
T1 sequence: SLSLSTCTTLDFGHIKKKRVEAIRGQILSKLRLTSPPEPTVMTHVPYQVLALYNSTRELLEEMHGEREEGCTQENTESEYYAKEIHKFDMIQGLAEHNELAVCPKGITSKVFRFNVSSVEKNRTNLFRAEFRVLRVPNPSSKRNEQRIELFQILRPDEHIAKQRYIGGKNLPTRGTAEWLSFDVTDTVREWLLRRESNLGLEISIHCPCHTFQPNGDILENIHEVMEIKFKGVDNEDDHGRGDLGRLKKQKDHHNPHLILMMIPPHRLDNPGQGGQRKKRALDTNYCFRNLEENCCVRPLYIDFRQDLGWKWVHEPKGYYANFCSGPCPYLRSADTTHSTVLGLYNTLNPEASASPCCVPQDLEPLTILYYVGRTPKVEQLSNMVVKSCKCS

latent TGFβ2 = biological target: T2, latent TGFβ2 (Chlorocebus aethiops (Green monkey) …, UniProt P61811 20-414); test: Octet (bio-layer interferometry)
T2 sequence: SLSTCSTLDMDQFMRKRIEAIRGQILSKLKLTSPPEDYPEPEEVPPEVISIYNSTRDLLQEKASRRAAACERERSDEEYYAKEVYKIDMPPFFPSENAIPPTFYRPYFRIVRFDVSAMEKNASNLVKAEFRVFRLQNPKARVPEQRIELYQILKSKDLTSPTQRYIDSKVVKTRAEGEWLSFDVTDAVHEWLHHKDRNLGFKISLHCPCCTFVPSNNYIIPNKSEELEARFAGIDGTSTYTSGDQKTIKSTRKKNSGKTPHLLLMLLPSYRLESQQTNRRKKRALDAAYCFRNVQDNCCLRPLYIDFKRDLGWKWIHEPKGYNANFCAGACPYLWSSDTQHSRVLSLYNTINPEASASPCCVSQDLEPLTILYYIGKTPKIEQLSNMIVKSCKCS

B1: Ab3 (antibody, V domains shown)
VH: EVQLLESGGGLVQPGGSLRLSCAASGFTFRNYAMSWVRQAPGKGLEWVSSISGSGGATYYADSVKGRFTISRDNSKNTLYLQMNSLRAEDTAVYYCARVSSGHWDFDYWGQGTLVTVSS
VL: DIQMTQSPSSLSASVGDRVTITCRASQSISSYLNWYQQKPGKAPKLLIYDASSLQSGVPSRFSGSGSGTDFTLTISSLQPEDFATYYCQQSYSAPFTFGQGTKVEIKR
notes: described as a fully human monoclonal antibody; Ab3-mIgG1 was used in vivo
binding result (latent TGFβ3): no binding | binding result (latent TGFβ2): no binding

Reference: US20240016928A1 (SCHOLAR ROCK, published 2024)
